# ± gives the uncertainty stated by the source.
# Assay: self-splicing fitness, log relative to wild type (ln ratio); higher = more splicing; Tetrahymena group I intron in knt gene, E. coli kanamycin selection, DiMSum; sequences stand for … in CUCUCU…GGAGGGAAAAGUUAUCAGGCAUGCACCUGGUAGCUAGUCUUUAAACCAAUAGAUUGCAUCGGUUUAAAAGGCAAGACCGUCAAAUUGCGGGAAAGGGGUCAACAGCCGUUCAGUACCAAGUCUCAGGGGAAACUUUGAGAUGGCCUUGCAAAGGGUAUGGUAAUAAGCUGACGGACAUGGUCCUAACCACGCAGCCAAGUCCUAAGUCAACAGAUCUUCUGUUGAUAUGGAUGCAGUUCACAGACUAAAUGUCGGUCGGGGAAGAUGUAUUCUUCUCAUAAGAUAUAGUCGGACCUCUCCUUAAUGGGAGCUAGCGGAUGAAGUGAUGCAACACUGGAGCCGCUGGGAACUAAUUUGUAUGCGAAAGUAUAUUGAUUAGUUUUGGAGUACUCGUGGUCG
# Outline: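 A randomised library covering all eight P1ex-region intron nucleotides was built with the intron in the knt kanamycin-resistance gene on pET-22b(+) and held in E. coli BL21(DE3). Cells were grown overnight at 37°C or 30°C on LB agar, with or without 25 μg/mL kanamycin, plus 100 μg/mL carbenicillin, 50 μM IPTG and 0.2% rhamnose, and pooled colonies were amplicon-sequenced on an Illumina HiSeq 2500. DiMSum fitness is the error-weighted combination of wild-type-normalised replicate fold changes, kanamycin versus none.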
Sequence,self-splicing fitness (ln) (30 °C),self-splicing fitness (ln) (37 °C)
UCCCAGCAAUAUUACGACAU,-3.293 ± 0.018,-2.13 ± 0.035
UCCCAGCAAUAUUACGACUA,-2.12 ± 0.15,-1.15 ± 0.15
UCCCAGCAAUAUUACGACUG,-3.58 ± 0.2,-3.16 ± 0.32
UCCCAGCAAUAUUACGAGUC,-3.66 ± 0.18,-1.56 ± 0.17
UCCCAGCAAUAUUACGAUAG,-3.91 ± 0.26,-1.97 ± 0.23
UCCCAGCAAUAUUACGAUUG,-3.56 ± 0.32,-3.17 ± 0.4
UCCCAGCAAUAUUACGCAGG,-3.88 ± 0.29,-3.54 ± 0.26
UCCCAGCAAUAUUACGCAUU,-2.93 ± 0.076,-1.58 ± 0.082
UCCCAGCAAUAUUACGCCUC,-3.11 ± 0.23,-1.98 ± 0.29
UCCCAGCAAUAUUACGCGGC,,-0.462 ± 0.4
UCCCAGCAAUAUUACGGAGU,-0.413 ± 0.053,-0.504 ± 0.066
UCCCAGCAAUAUUACGGAUA,-1.51 ± 0.093,-0.799 ± 0.084
UCCCAGCAAUAUUACGGGAA,-3.21 ± 0.2,-1.83 ± 0.14
UCCCAGCAAUAUUACGGGGU,-3.87 ± 0.27,-2.86 ± 0.22
UCCCAGCAAUAUUACGGGUG,-1.4 ± 0.06,-0.507 ± 0.075
UCCCAGCAAUAUUACGGUAG,-2.7 ± 0.12,-1.45 ± 0.11
UCCCAGCAAUAUUACGGUCC,-1.68 ± 0.14,-1.26 ± 0.18
UCCCAGCAAUAUUACGUAAC,-2.45 ± 0.11,-1.61 ± 0.17
UCCCAGCAAUAUUACGUAGU,-0.707 ± 0.046,-0.458 ± 0.066
UCCCAGCAAUAUUACGUGAU,-2.17 ± 0.076,-1.52 ± 0.12
UCCCAGCAAUAUUACGUGCC,-4.06 ± 0.23,-2.32 ± 0.2
UCCGAGCAAUAUUACGAAAC,-2.59 ± 0.27,-1.62 ± 0.28
UCCGAGCAAUAUUACGAAAU,-4.17 ± 0.34,
UCCGAGCAAUAUUACGAGGC,-3.1 ± 0.36,-1.7 ± 0.39
UCCGAGCAAUAUUACGAUCC,,-0.617 ± 0.39

Sequence,self-splicing fitness (ln) (30 °C),self-splicing fitness (ln) (37 °C)
UCCGAGCAAUAUUACGAUGG,-0.964 ± 0.097,-0.212 ± 0.12
UCCGAGCAAUAUUACGCAGA,-3.65 ± 0.43,-2.49 ± 0.23
UCCGAGCAAUAUUACGCAUA,-2.24 ± 0.42,-2.26 ± 0.35
UCCGAGCAAUAUUACGCGGG,-3.02 ± 0.28,-2.78 ± 0.38
UCCGAGCAAUAUUACGCGUU,-3.39 ± 0.12,-1.95 ± 0.13
UCCGAGCAAUAUUACGCUGG,-3.33 ± 0.21,-1.56 ± 0.19
UCCGAGCAAUAUUACGGGGC,-4.28 ± 0.23,-2.8 ± 0.17
UCCGAGCAAUAUUACGGUGA,-0.746 ± 0.076,-0.0617 ± 0.095
UCCGAGCAAUAUUACGGUUC,-3.78 ± 0.39,-3.02 ± 0.31
UCCGAGCAAUAUUACGUACU,-3.69 ± 0.25,-2.55 ± 0.34
UCCGAGCAAUAUUACGUAUU,-1.95 ± 0.17,-2.92 ± 0.43
UCCGAGCAAUAUUACGUCUA,-3.11 ± 0.23,-3 ± 0.24
UCCGAGCAAUAUUACGUGUG,-3.13 ± 0.11,-0.996 ± 0.088
UCCGAGCAAUAUUACGUUAA,-2.36 ± 0.21,-2.57 ± 0.28
UCCGAGCAAUAUUACGUUUA,-2.86 ± 0.48,-1.71 ± 0.23
UCCUAGCAAUAUUACGAAGA,-1.13 ± 0.12,0.123 ± 0.12
UCCUAGCAAUAUUACGACAG,-3.29 ± 0.25,-2.42 ± 0.31
UCCUAGCAAUAUUACGACUC,-2.94 ± 0.41,-2.24 ± 0.36
UCCUAGCAAUAUUACGACUG,-3.17 ± 0.27,-3.52 ± 0.42
UCCUAGCAAUAUUACGAGGA,-2.59 ± 0.48,-2.62 ± 0.35
UCCUAGCAAUAUUACGAUGU,-1.49 ± 0.06,-0.553 ± 0.079
UCCUAGCAAUAUUACGAUUC,,-2.2 ± 0.29
UCCUAGCAAUAUUACGCAAA,-2.95 ± 0.21,-1.48 ± 0.12
UCCUAGCAAUAUUACGCAUA,-2.82 ± 0.3,-2.11 ± 0.2
UCCUAGCAAUAUUACGCCGA,-0.215 ± 0.11,0.0045 ± 0.11

Sequence,self-splicing fitness (ln) (30 °C),self-splicing fitness (ln) (37 °C)
UCCUAGCAAUAUUACGCCGU,-1.83 ± 0.26,-0.887 ± 0.24
UCCUAGCAAUAUUACGCGAG,-3.06 ± 0.27,-3.22 ± 0.37
UCCUAGCAAUAUUACGGACC,-2.64 ± 0.27,
UCCUAGCAAUAUUACGGACG,-3.92 ± 0.4,-2.47 ± 0.39
UCCUAGCAAUAUUACGGCAG,-3.38 ± 0.24,-2.81 ± 0.22
UCCUAGCAAUAUUACGGCCG,-4.16 ± 0.42,-3.12 ± 0.37
UCCUAGCAAUAUUACGGUUA,,-2.54 ± 0.31
UCCUAGCAAUAUUACGUCAU,-3.25 ± 0.13,-3.37 ± 0.23
UCCUAGCAAUAUUACGUGCU,-3.5 ± 0.17,-1.8 ± 0.2
UCGAAGCAAUAUUACGACUU,-1.14 ± 0.21,-2.8 ± 0.23
UCGAAGCAAUAUUACGAGAU,-4.08 ± 0.42,-2.66 ± 0.21
UCGAAGCAAUAUUACGAUUU,-4.4 ± 0.39,-1.97 ± 0.23
UCGAAGCAAUAUUACGCAGG,-3.31 ± 0.23,-1.8 ± 0.16
UCGAAGCAAUAUUACGCCGA,-0.786 ± 0.25,-1.16 ± 0.28
UCGAAGCAAUAUUACGCCGG,-2.32 ± 0.13,-2.18 ± 0.19
UCGAAGCAAUAUUACGGCUU,-3.32 ± 0.27,-2.85 ± 0.22
UCGAAGCAAUAUUACGGGAG,-3.68 ± 0.33,-2.91 ± 0.31
UCGAAGCAAUAUUACGUAGG,-1.42 ± 0.08,-1.61 ± 0.1
UCGAAGCAAUAUUACGUCAC,-2.21 ± 0.12,-2.69 ± 0.27
UCGAAGCAAUAUUACGUGGG,-2.34 ± 0.14,-2.18 ± 0.18
UCGAAGCAAUAUUACGUUAU,-4.01 ± 0.28,-1.16 ± 0.15
UCGAAGCAAUAUUACGUUCA,-2.59 ± 0.26,-1.18 ± 0.17
UCGAAGCAAUAUUACGUUCG,-1.54 ± 0.12,-0.659 ± 0.19
UCGCAGCAAUAUUACGAAUG,-3.42 ± 0.23,-4.35 ± 0.42
UCGCAGCAAUAUUACGACCU,-3.1 ± 0.41,-1.37 ± 0.27

Sequence,self-splicing fitness (ln) (30 °C),self-splicing fitness (ln) (37 °C)
UCGCAGCAAUAUUACGAUCC,,-1.68 ± 0.36
UCGCAGCAAUAUUACGAUCU,-1.17 ± 0.21,-2.57 ± 0.21
UCGCAGCAAUAUUACGAUGG,-0.799 ± 0.061,-0.226 ± 0.084
UCGCAGCAAUAUUACGAUUC,-3.5 ± 0.48,
UCGCAGCAAUAUUACGCAUA,-1.94 ± 0.13,-0.0771 ± 0.11
UCGCAGCAAUAUUACGCGCC,-3.12 ± 0.17,-1.59 ± 0.13
UCGCAGCAAUAUUACGCGGC,,-1.94 ± 0.26
UCGCAGCAAUAUUACGCGGG,-3.93 ± 0.3,-3.33 ± 0.33
UCGCAGCAAUAUUACGCGUA,-1.83 ± 0.12,-0.123 ± 0.11
UCGCAGCAAUAUUACGCUCA,-1.37 ± 0.085,-0.529 ± 0.091
UCGCAGCAAUAUUACGGAAU,-2.75 ± 0.27,-2.5 ± 0.26
UCGCAGCAAUAUUACGGGCA,-1.41 ± 0.4,-0.479 ± 0.23
UCGCAGCAAUAUUACGGGGG,-2.52 ± 0.15,-1.86 ± 0.17
UCGCAGCAAUAUUACGGGUC,,-2.14 ± 0.23
UCGCAGCAAUAUUACGGUCC,,-1.82 ± 0.24
UCGCAGCAAUAUUACGGUGG,-3.36 ± 0.18,-2.85 ± 0.21
UCGCAGCAAUAUUACGUCCC,-4.28 ± 0.32,-2.97 ± 0.3
UCGCAGCAAUAUUACGUGGG,-4.4 ± 0.36,-2.53 ± 0.14
UCGCAGCAAUAUUACGUGUC,-3.83 ± 0.2,-2.28 ± 0.17
UCGGAGCAAUAUUACGACUU,-3.46 ± 0.22,-2.48 ± 0.19
UCGGAGCAAUAUUACGAGUC,,-0.017 ± 0.39
UCGGAGCAAUAUUACGCACA,-2.26 ± 0.46,-2.22 ± 0.43
UCGGAGCAAUAUUACGCAGA,,-2.13 ± 0.23
UCGGAGCAAUAUUACGCGAU,-3.51 ± 0.19,-2.42 ± 0.23

# — the supplement of paper PMC7877785
